For the test, the system named is AC133. Briefly: AC133 expression per 10,000 cells (quantified by U1A) in patients treated with GCSF. The class given is in vivo, human. Conditions: two patients treated with GCSF, compared to volunteers and all the other patients. How it is done: Isolation of nucleic acids from PBMC and NASBA amplification were performed as described in Example 2 with one modification: U1A was used instead of Beta Actin.
Two samples of patients who have been subjected to treatment with GCSF were tested. GCSF mobilizes stem cells from the bone marrow, so it is expected to find more AC133-expressing cells in the blood after a treatment with GCSF. It is clear from FIG. 16 that the AC133 expression in these two patients is much higher compared to volunteers and all the other patients.

B1: GCSF: mobilizes stem cells from the bone marrow (protein, UniProt P09919 31-207, looked up)
Granulocyte …: TPLGPASSLPQSFLLKCLEQVRKIQGDGAALQEKLVSECATYKLCHPEELVLLGHSLGIPWAPLSSCPSQALQLAGCLSQLHSGLFLYQGLLQALEGISPELGPTLDTLQLDVADFATTIWQQMEELGMAPALQPTQGAMPAFASAFQRRAGGVLVASHLQSFLEVSYRVLRHLAQP
As for B1, the “AC133 expression per 10,000 cells” value is listed as “much higher”.

Values taken from patent publication US20070077578A1, “Diagnosis of (a risk of ) disease and monitoring of therapy” (PrimaGen Holding B.V., priority 2004, published 2007).
